In experiment [1] the target is T1, human IL-10Rα on cells (human, UniProt Q13651 22-578).
T1 construct: Full-length entry with signal peptide; endogenous on PBMC and RPMI-8226 cells, transfected in EL-4 and CHO-K1 cells; also called IL-10R on RPMI-8226 cells; IL-10Rα on human PBMC, lymphocytes and monocytes
T1 sequence: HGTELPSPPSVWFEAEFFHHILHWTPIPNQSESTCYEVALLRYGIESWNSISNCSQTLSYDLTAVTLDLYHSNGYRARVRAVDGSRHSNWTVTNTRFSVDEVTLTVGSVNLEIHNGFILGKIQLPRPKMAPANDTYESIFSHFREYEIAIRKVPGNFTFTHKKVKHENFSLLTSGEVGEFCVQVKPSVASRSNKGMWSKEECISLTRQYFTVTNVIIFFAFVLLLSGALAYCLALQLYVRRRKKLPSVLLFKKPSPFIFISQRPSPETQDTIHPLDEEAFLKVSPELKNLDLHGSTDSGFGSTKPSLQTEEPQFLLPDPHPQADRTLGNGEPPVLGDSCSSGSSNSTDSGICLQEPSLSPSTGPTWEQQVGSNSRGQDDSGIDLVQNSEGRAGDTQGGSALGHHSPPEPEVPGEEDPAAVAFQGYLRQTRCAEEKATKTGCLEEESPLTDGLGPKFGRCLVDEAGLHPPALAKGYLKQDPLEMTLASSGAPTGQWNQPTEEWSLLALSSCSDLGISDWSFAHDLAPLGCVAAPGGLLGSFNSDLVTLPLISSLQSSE
The experiment in a line: flow cytometry on RPMI-8226 cells; biotinylated human IL-10, streptavidin-FITC [B]. From the text: RPMI-8226 cells were stained with human IL-10 biotin followed by anti-human IL-10Rα antibodies, and binding of antibodies was detected with anti-human IgG-PE or anti-rat IgG-PE. A) Filled histograms represent the maximum binding of the antibodies in the absence of IL-10, the open histograms are in the presence of human IL-10; B) Maximum IL-10 binding (closed histogram) is inhibited by anti-IL-10 (open histogram.) The shaded histogram represents binding of a negative control protein. Binding of IL-10 was detected with streptavidin-FITC.
IL-10 Blocking Assay: To determine if the anti-human IL-10Rα antibodies were blocked by binding of IL-10 to the receptor on the cell surface, a flow cytometric protocol was used. In the flow cytometric assay, RPMI-8226 cells were washed and resuspended in staining buffer and then incubated with biotinylated human IL-10 or a negative control protein (R&D Systems) for 30 minutes on ice. The anti-IL-10Rα antibodies were then added to the cells for an additional 30 minutes. […] After another wash, the cells were fixed with 1% paraformaldehyde and analyzed on a FACS Calibur. The fold reduction in antibody binding was determined using the geometric mean fluorescence intensity in the following formula: Fold reduction=geometric mean fluorescence intensity in the absence of IL-10/geometric mean fluorescence intensity binding in presence of IL-10.
On the technique in general: In flow cytometry, cells or beads pass a laser one at a time.

Experiment [2] has as its target T2, mouse IL-10Rα on splenocytes (mouse, UniProt Q61727 17-575).
T2 construct: whole, on cells
T2 sequence (looked up): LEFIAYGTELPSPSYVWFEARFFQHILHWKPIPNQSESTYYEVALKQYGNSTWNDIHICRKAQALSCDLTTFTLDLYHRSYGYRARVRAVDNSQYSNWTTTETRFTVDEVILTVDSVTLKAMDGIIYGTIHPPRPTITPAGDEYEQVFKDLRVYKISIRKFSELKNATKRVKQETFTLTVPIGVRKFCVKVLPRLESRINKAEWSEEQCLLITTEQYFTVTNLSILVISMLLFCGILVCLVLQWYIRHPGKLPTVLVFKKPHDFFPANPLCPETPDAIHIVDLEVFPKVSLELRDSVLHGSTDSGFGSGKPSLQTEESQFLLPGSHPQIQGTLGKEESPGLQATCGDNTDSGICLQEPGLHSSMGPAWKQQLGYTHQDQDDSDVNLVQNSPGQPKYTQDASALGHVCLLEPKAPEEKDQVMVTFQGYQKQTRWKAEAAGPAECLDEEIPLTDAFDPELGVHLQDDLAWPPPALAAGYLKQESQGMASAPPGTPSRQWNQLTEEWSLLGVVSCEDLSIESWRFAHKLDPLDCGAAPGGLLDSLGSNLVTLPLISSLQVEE
The experiment in a line: flow cytometry on splenocytes.

Experiment [3] concerns the target T3, cynomolgus macaque IL-10Rα on PBMC (cynomolgus macaque, UniProt Q13651 22-578 (human entry)).
T3 construct: Full-length entry cloned from cynomolgus T cells; endogenous on primary PBMC in the assays; also called IL-10Rα on the surface of cynomolgus lymphocytes and monocytes
T3 chain: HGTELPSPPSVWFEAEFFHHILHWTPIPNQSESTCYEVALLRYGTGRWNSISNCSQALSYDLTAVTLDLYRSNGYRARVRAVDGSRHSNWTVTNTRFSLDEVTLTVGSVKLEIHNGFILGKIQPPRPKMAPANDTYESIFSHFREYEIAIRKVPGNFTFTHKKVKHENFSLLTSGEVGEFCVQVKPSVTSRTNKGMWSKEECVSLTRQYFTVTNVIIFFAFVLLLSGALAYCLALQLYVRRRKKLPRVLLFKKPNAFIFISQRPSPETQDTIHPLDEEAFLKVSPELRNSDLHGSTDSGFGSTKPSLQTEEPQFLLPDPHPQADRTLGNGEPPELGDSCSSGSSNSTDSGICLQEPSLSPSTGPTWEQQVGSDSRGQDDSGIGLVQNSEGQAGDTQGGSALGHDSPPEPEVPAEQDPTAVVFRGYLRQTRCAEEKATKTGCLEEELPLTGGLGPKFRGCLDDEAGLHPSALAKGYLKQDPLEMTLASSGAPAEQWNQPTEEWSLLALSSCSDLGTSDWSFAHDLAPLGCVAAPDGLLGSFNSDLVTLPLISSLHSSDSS
Put plainly: flow cytometry on cynomolgus PBMC.

The target in experiment [4] is T4, cynomolgus macaque IL-10Rα extracellular domain fused to the Fc portion of human IgG1 (cynomolgus macaque).
T4 construct: The entry includes the signal peptide; also called cynomolgus IL-10Rα:hFc; cyIL-10Rα
Put plainly: ELISA, coated cynomolgus IL-10Rα:hFc. From the text:
Titration of anti-IL-10Rα antibodies binding to coated chimp or cynomolgus IL-10Rα:hFc. Binding was detected with anti-human kappa-HRP, anti-mouse IgG-HRP, or anti-rat IgG-HRP. Different anti-rat-IgG HRP and anti-mouse IgG antibodies were used to generate the data in panels A and B. The nature of these secondary antibodies can affect the results and lead to different maximum binding (BMAX). The BMAX from these studies are described in Table 5.
IL-10Rα Specific Antibody Detection ELISA: Antibody titers, specificity, and production by hybridomas were determined by ELISA. In brief, 96 well flat bottom Maxisorb plates were coated with 50 μl of hIL-10Rα (R&D Systems, Minneapolis, Minn.) at 1 μg/ml in carbonate buffer (pH 9.4) overnight at 4° C. or at 37° C. for 1 hour. After washing three times with PBS/0.05% Tween 20, plates were blocked with Superblock blocking buffer in TBS (Pierce) at room temperature for 30 minutes. The serum, supernatant, or purified antibody was diluted in blocking buffer, added to the wells, and the plates were incubated for 1 hour at room temperature. The plates were washed 3 times with PBS/0.05% Tween 20 and peroxidase-conjugated goat anti-human IgG (Fcγ specific), anti-rat IgG, or anti-mouse IgG detection antibodies (Jackson Immunoresearch) were added at a dilution of 1:5000. Multiple lots of anti-rat and anti-mouse IgG antibodies were used in different assays. […] Following a 1 hour incubation at room temperature, the plates were washed and the TMB (Sigma) substrate was added and incubated at room temperature for 5 to 10 minutes. The reaction was stopped with H₂SO₄ (LabChem) and the optical density was measured at 450 nm by a microplate reader. A second ELISA protocol using soluble human, chimp and cynomolgus IL-10Rα:hFc recombinant proteins as the coating antigens was also employed. In this assay, binding of specific human IgG were detected with a peroxidase labeled sheep anti-human kappa antibody (The Binding Site, Birmingham, UK).
In general terms: ELISA stands for enzyme-linked immunosorbent assay.

Experiment [5] addresses T5, Ac-YHSNGYRARVRA-NH2 (human).
T5 peptide: Ac-YHSNGYRARVRA-NH2
Put plainly: dot blot on PVDF or nitrocellulose membrane. How it is done:
(§1) Methods to detect antibody binding to peptides derived from the human IL-10Rα sequence: Multiple methods were employed to detect binding of anti-human IL-10Rα antibodies to peptides derived from the extracellular domain of human IL-10Rα that have been reported by Reineke, et al. (Reineke, et al., Protein Sci 7:951 (1998)) to be included in the IL-10 binding site of the receptor. The following amide synthesized peptides were tested: Ac-[…]-NH2, Ac-[…]-NH2, Ac-[…]-NH2, Ac-[…]-NH2, Ac-[…]-NH2 (SEQ ID NO. 81-85). In addition, the following biotinylated peptides were tested: Biotin-[…]-NH2, Biotin-[…]-NH2 (SEQ ID NO. 86-87). The amide peptides were synthesized by A&A Labs, LLC (San Diego, Calif.) and the biotinylated peptides were synthesized by GenScript (Piscataway, N.J.) both at >95% purity and reconstituted at 20 mg/ml in DMSO. In one assay design peptides were spotted at 5 μg/spot in PBS onto PVDF membranes or nitrocellulose membranes that had been prepared according to the manufacturer's instructions. The membranes were incubated with anti-IL-10Rα antibodies using standard Western blotting methods (e.g. Towbin, et al., Proc Natl Acad Sci 76:4350 (1979)). Native human IL-10Ra:hFc and heat denatured human IL-10Ra:hFc were also spotted at 1 μg/spot on the membranes as controls. Negative controls included an irrelevant peptide and isotype controls. […] None of the antibodies bound to the spotted denatured protein or to any of the peptides derived from the human IL-10Ra extracellular domain or the irrelevant peptide.

Experiment [6] addresses T6, Ac-TVTNTRFSVD-NH2 (human).
T6 peptide: Ac-TVTNTRFSVD-NH2
The experiment in a line: dot blot on PVDF or nitrocellulose membrane. How it is done: as §1

Experiment [7] has as its target T7, Ac-SIFSHFREYE-NH2 (human).
T7 peptide: Ac-SIFSHFREYE-NH2
Put plainly: dot blot on PVDF or nitrocellulose membrane. How it is done:
as §1

Experiment [8] deals with T8, Ac-GNFTFTHKKV-NH2 (human).
T8 peptide: Ac-GNFTFTHKKV-NH2
The experiment in a line: dot blot on PVDF or nitrocellulose membrane. How it is done: as §1

The target of experiment [9] is T9, Ac-SVASRSNKGM-NH2 (human).
T9 peptide: Ac-SVASRSNKGM-NH2
Put plainly: dot blot on PVDF or nitrocellulose membrane. How it is done:
as §1

The target of experiment [10] is T10, Biotin-SGSTLDLYHSNGYRARVRAVDG-NH2 (human, N-terminal biotin, C-terminal amide (-NH2)).
T10 peptide: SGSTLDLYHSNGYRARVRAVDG
Put plainly: dot blot on PVDF or nitrocellulose membrane. How it is done:
as §1

The target in experiment [11] is T11, Biotin-SGSTYSIFSHFREYEIAIRKV-NH2 (human, N-terminal biotin, C-terminal amide (-NH2)).
T11 peptide: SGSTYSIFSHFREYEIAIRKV
Put plainly: dot blot on PVDF or nitrocellulose membrane. How it is done:
as §1

B1: recombinant human IL-10 (ligand, UniProt P22301 19-178, looked up)
chain: SPGQGTQSENSCTHFPGNLPNMLRDLRDAFSRVKTFFQMKDQLDNLLLKESLLEDFKGYLGCQALSEMIQFYLEEVMPQAENQDPDIKAHVNSLGENLKTLRLRLRRCHRFLPCENKSKAVEQVKNAFNKLQEKGIYKAMSEFDIFINYIEAYMTMKIRN
notes: also called human IL-10 biotin
Regarding B1, in experiment [1], the binding result is reported as “binds”.

B2: 136D29 (antibody, V domains shown)
VH: QVQLVQSGAEVKKPGASVKVSCKVSGFTLTELSMHWVRQAPGKGLEWMGGFDPDDGETIYAQKFQGRVSMTEDTSTDTAYMELSSLRSEDTAVYYCATGGYYGPVGMDVWGQGTTVTVSS
VL: DIQMTQSPSSLSASVGDRVTITCRASQGISIWLAWYQQKPEKAPKSLIYAASSLQSGVPSRFSGSGSGTDFTLTISSLQPEDFATYYCQQYNSYPLTFGGGTKVEIK
notes: Hybridoma antibody, human IgG4, kappa light chain #2 (the chain identified as correct); also called human anti-human IL-10Rα monoclonal antibody 136D29; 136D9 [sic]
For the molecule B2, the binding result in experiment [2] is on record as “no binding”; in [3], “binds”; in experiment [5], “no binding (tested: 5 µg/spot)”; in experiment [6] it was “no binding (tested: 5 µg/spot)”; in experiment [7] it was “no binding (tested: 5 µg/spot)”; in experiment [8] it was “no binding (tested: 5 µg/spot)”. The binding result in [9], in experiment [10] and in [11] was “no binding (tested: 5 µg/spot)” in each case. This molecule registered a BMAX in experiment [4] of 1.31 OD.

The values above are taken from patent US20110144312A1 (Kyowa Kirin, published 2011).
